B1: LOXL2 (parent)
chain: RLLRFSSQIHNNGQSDFRPKNGRH
B2: EPB41L3 (parent)
chain: KKFLTLGSKFRYSGRTQAQTRRAS
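Also: lentivirally expressed fusions sorted by FACS into six bins by GFP to DsRed ratio, PSI derived from sequencing read proportions per bin multiplied by bin number.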

Variants of: B1
Assay: protein stability index of a GFP-peptide fusion (GPS, HEK-293T) (PSI 1-6); higher = more stable
Conditions: c terminus: a fixed tail appended
For R4L, the protein stability index was 2.36. R4N gave a protein stability index of 3.35. Work on R4S yielded a protein stability index of 2.79. Work on R4K yielded a protein stability index of 2.27. R4V gave a protein stability index of 2.62. For R4Y, the protein stability index was 2.66. In the case of R18Y, the protein stability index is reported as 2.59. Variant R18W has a protein stability index of 3.03. In the case of R18G, the protein stability index is reported as 2.33. In the case of R18P, the protein stability index is reported as 2.83. R18T gave a protein stability index of 3.29. R18Q gave a protein stability index of 2.99. Variant L3G has a protein stability index of 3.63. With L3F the protein stability index was 3.05. L3H gave a protein stability index of 3.79. In the case of L3N, the protein stability index is reported as 3.98. R1I gave a protein stability index of 1.78. R1D gave a protein stability index of 2.97. Variant R1F has a protein stability index of 1.17. For R1A, the protein stability index was 2.41. Work on R1C yielded a protein stability index of 2.78. For R1P, the protein stability index was 4.01. R1V showed a protein stability index of 1.89. For S15Y, the protein stability index was 2.83. With S15E the protein stability index was 3.14. With S15W the protein stability index was 2.44. S15T gave a protein stability index of 2.8. S15P gave a protein stability index of 3.12. S15L showed a protein stability index of 2.36. G13A showed a protein stability index of 2.48. Work on G13F yielded a protein stability index of 2.25. For G13W, the protein stability index was 2.56. Variant G13M has a protein stability index of 2.81. For G13I, the protein stability index was 2.31. G13D gave a protein stability index of 3.19. N11M gave a protein stability index of 2.81. N11K gave a protein stability index of 2.29. With N11A the protein stability index was 2.84. With N11V the protein stability index was 4.07. In the case of N11W, the protein stability index is reported as 2.51. With N11Y the protein stability index was 2.17. Variant N11L has a protein stability index of 2.69. N11D gave a protein stability index of 3.29. With Q8A the protein stability index was 2.94. Q8K gave a protein stability index of 2.14. With Q8F the protein stability index was 2.07. Q8M gave a protein stability index of 1.95. Work on N21R yielded a protein stability index of 2.62. Work on N21D yielded a protein stability index of 2.93. Work on N21A yielded a protein stability index of 2.82. N21S showed a protein stability index of 2.33. Variant F17P has a protein stability index of 3.45. F17G showed a protein stability index of 3.04. F17Y showed a protein stability index of 2.69. For F17C, the protein stability index was 2.8. With F17N the protein stability index was 3.42. F17E showed a protein stability index of 3.67. For I9G, the protein stability index was 3.48. Variant I9M has a protein stability index of 3.07. For I9C, the protein stability index was 3.11. For I9W, the protein stability index was 2.74. F5E gave a protein stability index of 3.94. With F5N the protein stability index was 3.92. Variant F5P has a protein stability index of 3.71. L2K gave a protein stability index of 3.91. L2W showed a protein stability index of 2.71. L2D showed a protein stability index of 4.51. For L2Q, the protein stability index was 4.12. L2V showed a protein stability index of 3.52. In the case of L2S, the protein stability index is reported as 4.59. N12H gave a protein stability index of 2.59. Work on N12K yielded a protein stability index of 2.65. Work on N12M yielded a protein stability index of 2.36. S6W showed a protein stability index of 2.56. In the case of S6L, the protein stability index is reported as 2.45. Variant S6G has a protein stability index of 2.64. S6F showed a protein stability index of 2.09. Work on S6N yielded a protein stability index of 3.03. In the case of S6Y, the protein stability index is reported as 2.89. With S6A the protein stability index was 2.65. In the case of S7L, the protein stability index is reported as 1.78. Work on S7P yielded a protein stability index of 4.2. Variant S7T has a protein stability index of 2.21. Variant S7D has a protein stability index of 3.57. S7F showed a protein stability index of 1.79. Work on S7A yielded a protein stability index of 2.5. With S7R the protein stability index was 2.25. S7I showed a protein stability index of 1.89. In the case of H10V, the protein stability index is reported as 2.68. Work on H10W yielded a protein stability index of 2.13. With H10G the protein stability index was 2.57. H10I showed a protein stability index of 2.24. Work on H10A yielded a protein stability index of 3.28. H10N showed a protein stability index of 3.06. For D16N, the protein stability index was 2.27. With D16S the protein stability index was 2.73. For D16F, the protein stability index was 1.97. D16P gave a protein stability index of 2.11. H24D showed a protein stability index of 2.86. Variant H24Y has a protein stability index of 2.67. For H24N, the protein stability index was 2.89. In the case of H24M, the protein stability index is reported as 2.68. Work on Q14F yielded a protein stability index of 1.8. In the case of Q14S, the protein stability index is reported as 3.15. Variant Q14D has a protein stability index of 2.84. Variant Q14R has a protein stability index of 2.5. In the case of Q14L, the protein stability index is reported as 2.19. Variant Q14G has a protein stability index of 2.52. Q14Y showed a protein stability index of 1.91. Work on Q14M yielded a protein stability index of 2.5. Q14T gave a protein stability index of 3.35. Work on Q14K yielded a protein stability index of 2.39. In the case of P19M, the protein stability index is reported as 2.21. In the case of P19N, the protein stability index is reported as 2.84. G22D showed a protein stability index of 2.94. For G22A, the protein stability index was 2.57. G22Q gave a protein stability index of 2.89. G22P showed a protein stability index of 2.7. G22R gave a protein stability index of 2.47. In the case of G22W, the protein stability index is reported as 2.22. Work on G22V yielded a protein stability index of 2.01. G22M showed a protein stability index of 2.27. Variant K20M has a protein stability index of 1.92. Work on K20R yielded a protein stability index of 2.78. In the case of R23G, the protein stability index is reported as 2.71. For R23H, the protein stability index was 2.36. With R23Y the protein stability index was 2.61. For R23K, the protein stability index was 2.8. With R23F the protein stability index was 1.84.

Variants of: B2
Assay: as above
Conditions: c terminus: a fixed tail appended
Work on F3A yielded a protein stability index of 3.62. F3D showed a protein stability index of 3.81. With F3C the protein stability index was 3.76. Variant K2W has a protein stability index of 2.31. Work on K2E yielded a protein stability index of 2.47. K2D gave a protein stability index of 2.44. Variant K2N has a protein stability index of 2.85. K2V showed a protein stability index of 2.23. In the case of K2H, the protein stability index is reported as 2.4. With K2T the protein stability index was 2.44. For K2A, the protein stability index was 2.14. For K2Y, the protein stability index was 2.22. In the case of K2F, the protein stability index is reported as 4.04. For K2L, the protein stability index was 1.57. Variant K2S has a protein stability index of 2.74. With K2C the protein stability index was 2.6. Variant K2I has a protein stability index of 2.54. With K2G the protein stability index was 2.59. With K2R the protein stability index was 4.02. For K2Q, the protein stability index was 2.06. With K2P the protein stability index was 2.84. With K1I the protein stability index was 2.42. With K1H the protein stability index was 2.56. With K1D the protein stability index was 2.43. In the case of K1R, the protein stability index is reported as 3.7. With K1L the protein stability index was 1.91. K1S gave a protein stability index of 2.76. Work on K1V yielded a protein stability index of 2.25. K1F gave a protein stability index of 2.45. K1A gave a protein stability index of 2.2. K1M showed a protein stability index of 4.46. In the case of K1Y, the protein stability index is reported as 2.23. K1T showed a protein stability index of 2.38. K1P showed a protein stability index of 2.18. K1N gave a protein stability index of 3.5. K1W gave a protein stability index of 1.91. For K1C, the protein stability index was 2.56. Work on K1G yielded a protein stability index of 3.83.

Reference: the supplement of paper PMC10567573
